Data on five molecules can be found in US8491891B2, “Human beta-glucuronidase mutants with elevated enzymatic activity under physiological conditions and method for identifying such” (Academia Sinica, priority 2008, dated 2013).

Data set [1] can be described thus: Enzymatic activity of purified position-545 single mutants at pH 7.0. Type of data set: biochemical. The conditions noted are these: purified enzyme. The text has this: DNA plasmids were extracted from 12 individual cell clones and subjected to DNA sequencing to examine mutations in the genes encoding human β-glucuronidase variants. All human β-glucuronidase variants being examined had mutations at position 545 (50% T→A and 50% T→S). To determine the effect of amino acid substitutions at position 545 on enzyme activity, the single amino acid mutants T545A (E1-A), T545G (E1-G), T545S (E1-S) and T545Y (E1-Y) were generated and purified from the culture medium of stably transfected fibroblasts. […] Thus, the single amino acid substitution at position 545 affected human β-glucuronidase activity at neutral pH.

A short description of data set [2]: Relative activity of membrane-tethered human β-glucuronidase variants on 3T3 cells by flow cytometry (FL4/FL1). Type of data set: cell-based. The settings on record: membrane-tethered enzyme, pH 7.0, substrate ELF97 β-D-glucuronide. The procedure: The 3T3 cell libraries mentioned above were screened by FACS analysis for cells that express human β-glucuronidase variants with elevated enzymatic activity. 10^7 3T3 cells expressing membrane-bound human β-glucuronidase variants were washed and suspended in 0.4 ml BSA/HBSS (5.4 mM KCl, 0.3 mM Na2HPO4, 0.4 mM KH2PO4, 4.2 mM NaHCO3, 1.3 mM CaCl2, 0.5 mM MgCl2, 0.6 mM MgSO4, 137 mM NaCl, 5.6 mM D-glucose, pH 7.4) containing 0.5% bovine serum albumin (BSA) and 20 μg/ml 7G8-FITC for 30 min at 4° C. Cells were then washed and incubated with 25, 50 or 100 μM ELF97 β-D-glucuronide at defined pH values in 50 mM Bis-Tris, 25 mM glucose, 85.6 mM NaCl, 5.4 mM KCl, 0.6 mM MgSO4, 1.3 mM CaCl2) at 37° C. for 10 min. The cells were washed with ice-cold 0.5% BSA/HBSS and suspended in 0.5% BSA/HBSS containing 5 μg/ml propidium iodide (Sigma). Cells were then sorted on a FACSVantage DiVa (Becton, Dickinson and Company, Franklin Lakes, N.J.) equipped with an Enterprise IIC argon laser for dual excitation at 488 and 351-364 nm. Dead cells (propidium iodide positive, high FL3 fluorescence) were gated out before 7G8-FITC immunofluorescence was detected at excitation/emission wavelengths of 488/515 nm (FL1) and ELF97 was detected at excitation/emission wavelengths of 351/530 nm (FL4). […] The sorted cells were cultured for 4-10 days for sequential rounds of cell sorting or RNA extraction. Flow cytometer data was analyzed using Flowjo (Tree star, Ashland, Oreg.).
Independent 3T3 clones (5×10^7) in library EP2 mentioned above were immunofluorescence stained with 7G8-FITC and reacted with ELF97 β-D-glucuronide at pH 7.0. Sixteen individual cell clones were isolated after three rounds of sorting and the human β-glucuronidase genes were sequenced. […] Table 1 below lists amino acid substitutions in five exemplary variants and their relative enzymatic activities.
(In flow cytometry, cells or beads pass a laser one at a time.)

Data set [3] can be described thus: Kinetic values (Km, kcat) of soluble recombinant human β-glucuronidase and variants. Type of data set: biochemical. The settings on record: for kcat/Km, fold higher than wild-type human β-glucuronidase: pH 7.0. As for the experimental part: Recombinant His-tagged wild-type human β-glucuronidase and its variants (soluble) were produced in and purified from stable 3T3 fibroblast lines, following the method described above also the method described in Wu et al., Biotechnol Appl Biochem 40:167-172 (2004).
(§1) The pH-dependent enzyme activities of the above-mentioned recombinant human beta-glucuronidase and variants were measured in triplicate with 0.1 mM ELF97 β-D-glucuronide at 37° C. for 30 minutes at a defined pH ranging from 3-10 in a beta-glucuronidase reaction buffer (50 mM Bis-Tris, 50 mM triethanol amine, 100 mM acetic acid, 0.1% BSA). The reaction was quenched by adding an equal volume of a stop buffer (2 M Tris-HCl, 0.8 M sodium bicarbonate, pH 8). The fluorescence of ELF97 was measured in a Gemini EM microplate spectrofluorometer (Molecular Device, Sunnyvale, Calif.) at excitation/emission wavelengths of 355/555 nm. Kinetic values for human beta-glucuronidase substrate hydrolysis were determined by diluting ELF97 β-D-glucuronide (2 mM) in a pH 4.5 or pH 7.0 beta-glucuronidase reaction buffer 1:1 with defined concentrations of human beta-glucuronidase in 200 μl. Fluorescence was immediately measured under thermal control at 37° C. for 8-10 min. The measurement was repeated using the same amount of enzyme at different substrate concentrations in an optimal range. The acquired readings were converted to product concentration based on preestablished standard curves. Double reciprocal plots were used to determine Km and kcat. Kinetic assays were performed at least 3 times and mean values were calculated. The stability of recombinant human beta-glucuronidase variants was carried out by measuring their enzymatic activity at time 0 and again after incubating 5 μg purified enzymes in PBS (containing 0.5 mg/ml BSA) at 37° C. for 14 days. The enzymatic activities of the human beta-glucuronidase variants were measured in triplicate with 0.5 mM 4-methylumbelliferyl β-D-glucuronide at 37° C. for 15 minutes at pH 7.0 in β-glucuronidase reaction buffer. The reaction was terminated by adding an equal volume of a stop buffer (1 M glycine, 0.5 M sodium bicarbonate, pH 11) and the fluorescence was measured at excitation/emission wavelengths of 355/460 nm in a microplate spectrofluorometer.

Data set [4] concerns EJ human bladder cancer cells. Put plainly: Prodrug activation of HAMG by enzyme, 3H-thymidine incorporation. The conditions noted are these: 10 μM HAMG, pH 6.8, 24 h. Type of data set: cell-based. The procedure: (§2) The prodrug activation activity of the human beta-glucuronidase variants was determined as follows. EJ human bladder cancer cells were incubated with graded concentrations (see FIGS. 3B and 3C) of human β-glucuronidase variants in RPMI (pH 6.8) containing either 10 μM HAMG or 100 nM SN-38G for 24 hours. The cells were further incubated for 24 hours in fresh medium before incorporation of ^3H-thymidine into cellular DNA was measured following the procedure described below.
(§3) Purified recombinant human beta-glucuronidase and its variants with defined concentrations were mixed with 10 μM HAMG or 100 nM SN-38G and the mixture was added to 5000 EJ human bladder cancer cells in 200 μl complete medium at pH 6.8 for 24 h. The cells were washed and incubated in fresh medium for 24 h and then pulsed for 16 h with ^3H-thymidine (1 μCi/well). The cells were harvested and the radioactivity was measured in a TopCount Microplate Scintillation Counter (Packard, Meriden, Conn.). Results are expressed as percent inhibition of ^3H-thymidine incorporation into cellular DNA in comparison to untreated cells.
(In general: Uptake of a labelled nucleoside into DNA is a usual measure of proliferation.)

Data set [5] in a line: pH-dependent enzyme activity of recombinant human β-glucuronidase and variants (pH 3-10). Type of data set: biochemical. As for the experimental part:
as §1, with “The measurement was repeated using the same amount of enzyme at different substrate concentrations in an optimal range.” left out, “Double reciprocal plots were used to determine Km and kcat.” left out, “The stability of recombinant human beta-glucuronidase variants was carried out by measuring their enzymatic activity at time 0 and again after incubating 5 μg purified enzymes in PBS (containing 0.5 mg/ml BSA) at 37° C. for 14 days.” left out, “The reaction was terminated by adding an equal volume of a stop buffer (1 M glycine, 0.5 M sodium bicarbonate, pH 11) and the fluorescence was measured at excitation/emission wavelengths of 355/460 nm in a microplate spectrofluorometer.” left out

The subject of data set [6] is EJ human bladder cancer cells. As to the kind of experiment: Prodrug activation of SN-38G by enzyme, 3H-thymidine incorporation. Type of data set: cell-based. The settings on record: 100 nM SN-38G, pH 6.8, 24 h. The procedure: as §2, §3

Residue numbers refer to the chain shown, from its start. Names and notes keep the numbering of the source.

B1: E1-A: human β-glucuronidase single amino acid mutant T545A (protein, UniProt P08236 23-651, looked up, variant T545A)
Beta-glucuronidase: LQGGMLYPQESPSRECKELDGLWSFRADFSDNRRRGFEEQWYRRPLWESGPTVDMPVPSSFNDISQDWRLRHFVGWVWYEREVILPERWTQDLRTRVVLRIGSAHSYAIVWVNGVDTLEHEGGYLPFEADISNLVQVGPLPSRLRITIAINNTLTPTTLPPGTIQYLTDTSKYPKGYFVQNTYFDFFNYAGLQRSVLLYTTPTTYIDDITVTTSVEQDSGLVNYQISVKGSNLFKLEVRLLDAENKVVANGTGTQGQLKVPGVSLWWPYLMHERPAYLYSLEVQLTAQTSLGPVSDFYTLPVGIRTVAVTKSQFLINGKPFYFHGVNKHEDADIRGKGFDWPLLVKDFNLLRWLGANAFRTSHYPYAEEVMQMCDRYGIVVIDECPGVGLALPQFFNNVSLHHHMQVMEEVVRRDKNHPAVVMWSVANEPASHLESAGYYLKMVIAHTKSLDPSRPVTFVSNSNYAADKGAPYVDVICLNSYYSWYHDYGHLELIQLQLATQFENWYKKYQKPIIQSEYGAEAIAGFHQDPPLMFTEEYQKSLLEQYHLGLDQKRRKYVVGELIWNFADFMTEQSPTRVLGNKKGIFTRQRQPKSAAFLLRERYWKIANETRYPHSVAKSQCLENSLFT
In the case of B1, the “Enzymatic activity relative to wild-type human β-glucuronidase” value in data set [1] is “about 2.5 fold”.

B2: E1-Y: human β-glucuronidase single amino acid mutant T545Y (protein, UniProt P08236 23-651, looked up, variant T545Y)
Beta-glucuronidase: B1 Beta-glucuronidase with A523Y
As to B2, in data set [1], the “Enzymatic activity relative to wild-type human β-glucuronidase” value was “almost inactive”.

B3: E1-S: human beta-glucuronidase variant T545S, SEQ ID NO: 6 (protein)
chain: GAQPALQGGMLYPQESPSRECKELDGLWSFRADFSDNRRRGFEEQWYRRPLWESGPTVDMPVPSSFNDISQDWRLRHFVGWVWYEREVILPERWTQDLRTRVVLRIGSAHSYAIVWVNGVDTLEHEGGYLPFEADISNLVQVGPLPSRLRITIAINNTLTPTTLPPGTIQYLTDTSKYPKGYFVQNTYFDFFNYAGLQRSVLLYTTPTTYIDDITVTTSVEQDSGLVNYQISVKGSNLFKLEVRLLDAENKVVANGTGTQGQLKVPGVSLWWPYLMHERPAYLYSLEVQLTAQTSLGPVSDFYTLPVGIRTVAVTKSQFLINGKPFYFHGVNKHEDADIRGKGFDWPLLVKDFNLLRWLGANAFRTSHYPYAEEVMQMCDRYGIVVIDECPGVGLALPQFFNNVSLHHHMQVMEEVVRRDKNHPAVVMWSVANEPASHLESAGYYLKMVIAHTKSLDPSRPVTFVSNSNYAADKGAPYVDVICLNSYYSWYHDYGHLELIQLQLATQFENWYKKYQKPIIQSEYGAESIAGFHQDPPLMFTEEYQKSLLEQYHLGLDQKRRKYVVGELIWNFADFMTEQSPTRVLGNKKGIFTRQRQPKSAAFLLRERYWKIANETRYPHSVAKSQCLENSPFTSVD
modifications: Laboratory generated variant, E1-S, based upon the human beta-glucuronidase
By Km is commonly meant the concentration of substrate that gives half-maximal velocity. Usually kcat stands for the number of substrate molecules converted per active site and unit of time at saturation. In the case of B3, the “Relative activity (FL4/FL1 normalized to wild-type human β-glucuronidase)” value in data set [2] worked out at 21. Also, in data set [3] (pH 4.5, 37° C.), the Michaelis-Menten constant (Km) stood at 52 ± 4 µM and the kcat turned out to be 117 ± 14 s⁻¹. In data set [3], the “kcat/Km, fold higher than wild-type human β-glucuronidase” value amounted to 4 fold. In data set [3] (pH 7.0, 37° C.), the Km was 390 ± 40 µM and the kcat came to 31 ± 6 s⁻¹. Also, the “Enzymatic activity relative to wild-type human β-glucuronidase” value in data set [1] is reported as “about 1.5 fold”.

B4: E1-G: human beta-glucuronidase variant T545G, SEQ ID NO: 7 (protein)
chain: B3 chain with S528G
modifications: Laboratory generated variant, E1-G, based upon the human beta-glucuronidase
Turning to B4, the Km in data set [3] (pH 4.5, 37° C.) worked out at 22 ± 2 µM; in data set [3] (pH 7.0, 37° C.), 110 ± 10 µM. In addition, the kcat in data set [3] (pH 4.5, 37° C.) is 106 ± 4 s⁻¹; in data set [3] (pH 7.0, 37° C.) it was 32 ± 4 s⁻¹. Also, the “kcat/Km, fold higher than wild-type human β-glucuronidase” value in data set [3] is reported as 10 fold. In data set [1], the “Enzymatic activity relative to wild-type human β-glucuronidase” value is on record as “about 2.5 fold”.

B5: Wild type: Human beta-glucuronidase (wild-type, SEQ ID NO: 11) (protein, listed as Homo sapiens)
chain: MARGSAVAWAALGPLLWGCALGLQGGMLYPQESPSRECKELDGLWSFRADFSDNRRRGFEEQWYRRPLWESGPTVDMPVPSSFNDISQDWRLRHFVGWVWYEREVILPERWTQDLRTRVVLRIGSAHSYAIVWVNGVDTLEHEGGYLPFEADISNLVQVGPLPSRLRITIAINNTLTPTTLPPGTIQYLTDTSKYPKGYFVQNTYFDFFNYAGLQRSVLLYTTPTTYIDDITVTTSVEQDSGLVNYQISVKGSNLFKLEVRLLDAENKVVANGTGTQGQLKVPGVSLWWPYLMHERPAYLYSLEVQLTAQTSLGPVSDFYTLPVGIRTVAVTKSQFLINGKPFYFHGVNKHEDADIRGKGFDWPLLVKDFNLLRWLGANAFRTSHYPYAEEVMQMCDRYGIVVIDECPGVGLALPQFFNNVSLHHHMQVMEEVVRRDKNHPAVVMWSVANEPASHLESAGYYLKMVIAHTKSLDPSRPVTFVSNSNYAADKGAPYVDVICLNSYYSWYHDYGHLELIQLQLATQFENWYKKYQKPIIQSEYGAETIAGFHQDPPLMFTEEYQKSLLEQYHLGLDQKRRKYVVGELIWNFADFMTEQSPTRVLGNKKGIFTRQRQPKSAAFLLRERYWKIANETRYPHSVAKSQCLENSPFT
As for B5, in data set [2], the “Relative activity (FL4/FL1 normalized to wild-type human β-glucuronidase)” value was determined as 1. Further, in data set [3] (pH 4.5, 37° C.), the Km amounted to 480 ± 60 µM and the kcat was found to be 175 ± 17 s⁻¹. Also, in data set [3] (pH 7.0, 37° C.), the Km stood at 2250 ± 670 µM and the kcat was found to be 41 ± 6 s⁻¹. In data set [4], the “EC50 of enzyme for killing of EJ cells with HAMG” value worked out at 24 µg/mL. For the same molecule, the “pH of maximal activity” value in data set [5] (0.1 mM ELF97 β-D-glucuronide, 37° C., 30 minutes) amounted to 4.0. Besides, the “Activity at pH 7.0 as percent of maximal activity” value in data set [5] (pH 7.0) amounted to 2%. For the same molecule, in data set [6], the “EC50 of enzyme for killing of EJ cells with SN-38G” value was 0.096 µg/mL.
